The values below are quoted from earlier work in article PMC10172704 (Poultry Science, 2023).

Read-outs that look alike come from different tables or passages of the source.

One data set has as its system Staphylococcus aureus. The note with it: ref Wang et al., 2020.
For a further data set, the system named is Escherichia coli. The note with it: ref Wang et al., 2020.

B1: Milk lactoferrin: milk lactoferrin; literature MICs, also after proteolytic digestion by pepsin (protein, UniProt P02788 20-710, looked up)
Lactotransferrin: GRRRSVQWCAVSQPEATKCFQWQRNMRKVRGPPVSCIKRDSPIQCIQAIAENRADAVTLDGGFIYEAGLAPYKLRPVAAEVYGTERQPRTHYYAVAVVKKGGSFQLNELQGLKSCHTGLRRTAGWNVPIGTLRPFLNWTGPPEPIEAAVARFFSASCVPGADKGQFPNLCRLCAGTGENKCAFSSQEPYFSYSGAFKCLRDGAGDVAFIRESTVFEDLSDEAERDEYELLCPDNTRKPVDKFKDCHLARVPSHAVVARSVNGKEDAIWNLLRQAQEKFGKDKSPKFQLFGSPSGQKDLLFKDSAIGFSRVPPRIDSGLYLGSGYFTAIQNLRKSEEEVAARRARVVWCAVGEQELRKCNQWSGLSEGSVTCSSASTTEDCIALVLKGEADAMSLDGGYVYTAGKCGLVPVLAENYKSQQSSDPDPNCVDRPVEGYLAVAVVRRSDTSLTWNSVKGKKSCHTAVDRTAGWNIPMGLLFNQTGSCKFDEYFSQSCAPGSDPRSNLCALCIGDEQGENKCVPNSNERYYGYTGAFRCLAENAGDVAFVKDVTVLQNTDGNNNEAWAKDLKLADFALLCLDGKRKPVTEARSCHLAMAPNHAVVSRMDKVERLKQVLLHQQAKFGRNGSDCPDKFCLFQSETKNLLFNDNTECLARLHGKTTYEKYLGPQYVAGITNLKKCSTSPLLEACEFLRK
The term MIC denotes the lowest concentration that inhibits growth of the organism. As for B1, the MIC is given as 260 mg/mL in the data set with Staphylococcus aureus, 65 mg/mL with Escherichia coli (after proteolytic digestion by pepsin) and 130 mg/mL in the data set with Escherichia coli.
